Reference: PMC9474507

Legend:
[1] = target: pre-formed corona layer (proteins of 10% mouse serum pre-adsorbed on L-NPs) (mouse (endogenous in serum)); assay: BLI; L-NPs loaded on human IgG-coated AR2G biosensors, immersed in 10% mouse serum (300 s in the methods, 3 min in the text) and rinsed with water; association 300 s with 6.25-100 nM HSA or IgG, dissociation 600 s in buffer; 30 °C, 1000 rpm; 1:1 model
[2] = target: Immunoglobulin G purified from human serum (human) [IgG part: P01857]; assay: BLI; IgG pre-coated on L-NPs
[3] = target: Albumin purified from human serum (human) (UniProt P02768); assay: BLI; HSA pre-coated on L-NPs

Kd [1] [nM]	Kd [2] [nM]	Kd [3] [pM]	Substance
32.5	–	–	Albumin purified from human serum (from UniProt P02768 25-609) (natural protein)
–	5.1	< 1	Immunoglobulin G purified from human serum (from UniProt P01857)
1.2	–	–	Immunoglobulin G purified from human serum (antibody)
